{"source": "patent US20140187616A1", "biological_target": "Drosophila olf186-F-RB (Drosophila) (UniProt Q9U6B8)", "sequence (Q9U6B8 whole entry)": "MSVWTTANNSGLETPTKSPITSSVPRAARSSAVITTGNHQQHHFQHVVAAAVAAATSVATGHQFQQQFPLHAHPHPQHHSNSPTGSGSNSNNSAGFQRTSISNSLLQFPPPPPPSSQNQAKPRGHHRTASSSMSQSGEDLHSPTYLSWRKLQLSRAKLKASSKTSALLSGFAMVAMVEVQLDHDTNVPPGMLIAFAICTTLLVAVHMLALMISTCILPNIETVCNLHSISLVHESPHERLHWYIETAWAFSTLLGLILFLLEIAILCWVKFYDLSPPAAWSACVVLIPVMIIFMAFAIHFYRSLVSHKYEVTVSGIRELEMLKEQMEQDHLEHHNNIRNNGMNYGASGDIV", "experiment": "cell-based or functional assay", "data": [{"substance": "Drosophila Stim (from UniProt P83094 24-570)", "values": [{"measurement": "CRAC current density (whole-cell patch clamp, cotransfected S2 cells)", "result": 8, "unit": "fold"}]}]}
